Experimental data from US9744220B2, “Compositions and methods for treating inflammatory diseases” (priority 2013, dated 2017).
Entries after “also recorded” stand apart in the source; their conditions may differ.

Columns and labels:
[1] = system: cardiac and hepatic stem cell markers; test: Intravenous sPDNF into naïve mice, stem cell markers by real time PCR; assay type: in vivo; details: independently of TLR signaling
Description: FIG. 2A is a graph showing stem cell marker expression in mice administered sPDNF. One set of three wild type C57BL/6 mice received intravenous (IV) PBS without (PBS) or with sPDNF (2 mg/kg) at 0, 3 and 24 hours (sPDNF 1d), and a second set IV sPDNF (2 mg/kg) for 6 days (sPDNF 6d). Mice were sacrificed 3 hr post injection and the indicated stem cells markers were quantified in the ventricles by real time PCR, and normalized to HPRT; *, p<0.05, **, p<0.001, ***, p<0.0001; SCF, stem cell factor, ns, not significant. FIG. 2B is a graph showing stem cell marker expression in MyD88^−/− mice administered sPDNF. TLR-deficient MyD88^−/− mice (C57BL/6 background) (2/group) were injected IV with a single dose of sPDNF (2 mg/kg), sacrificed at 3 hours post-injection, and the indicated cardiac stem cell markers assessed by qPCR. […] Cardiac Sca-1 and SCF transcripts were quantified by qPCR; **, P<0.001; ***, P<0.0005. FIG. 2D is a graph showing quantitation of Sca-1 expression in various organs of mice administered sPDNF. C57BL/6 mice (3 per group), average of two experiments) were injected IV with sPDNF at 4 mg/kg body weight or PBS, sacrificed 3 hours later, and Sca-1 mRNA quantified by qPCR in the liver, heart, colon and bone marrow (*, P<0.05, **, P<0.001; ns, not significant; dotted line represents Sca-1 mRNA of vehicle-treated mice set at 1.0, data are representative of 2 experiments. […]

IL1-Ra, TSG-6 and COX-2 = test: Intravenous sPDNF into naïve mice, anti-inflammatory factor transcripts in heart and liver; assay type: in vivo
Description: FIG. 2A is a graph showing stem cell marker expression in mice administered sPDNF. One set of three wild type C57BL/6 mice received intravenous (IV) PBS without (PBS) or with sPDNF (2 mg/kg) at 0, 3 and 24 hours (sPDNF 1d), and a second set IV sPDNF (2 mg/kg) for 6 days (sPDNF 6d). Mice were sacrificed 3 hr post injection and the indicated stem cells markers were quantified in the ventricles by real time PCR, and normalized to HPRT; *, p<0.05, **, p<0.001, ***, p<0.0001; SCF, stem cell factor, ns, not significant. FIG. 2B is a graph showing stem cell marker expression in MyD88^−/− mice administered sPDNF. TLR-deficient MyD88^−/− mice (C57BL/6 background) (2/group) were injected IV with a single dose of sPDNF (2 mg/kg), sacrificed at 3 hours post-injection, and the indicated cardiac stem cell markers assessed by qPCR. Data were normalized to HPRT and made relative to vehicle-treated controls (set at 1.0 and represented by the dashed line); **, P<0.01; and ***, P<0.005. FIG. 2C is a graph showing stem cell marker expression in mice administered sPDNF at various time points after injection. […] Cardiac Sca-1 and SCF transcripts were quantified by qPCR; **, P<0.001; ***, P<0.0005. FIG. 2D is a graph showing quantitation of Sca-1 expression in various organs of mice administered sPDNF. C57BL/6 mice (3 per group), average of two experiments) were injected IV with sPDNF at 4 mg/kg body weight or PBS, sacrificed 3 hours later, and Sca-1 mRNA quantified by qPCR in the liver, heart, colon and bone marrow (*, P<0.05, **, P<0.001; ns, not significant; dotted line represents Sca-1 mRNA of vehicle-treated mice set at 1.0, data are representative of 2 experiments. […] FIG. 2F is a graph showing quantitation of expression of inflammatory markers in mice administered sPDNF. Wild type and naïve mice (5 per group) were injected IV with a single dose of sPDNF (4 mg/kg), sacrificed 3 hr post-injection, and the L-1Ra, TSG-6, COX-2, and IDO transcripts quantified in the heart and liver. […]

[2] = system: heart of mice with chronic Chagas cardiomyopathy (CCC); test: Chronic Chagas cardiomyopathy (CCC) mice, heart histology (H&E, Masson-Trichrome); assay type: in vivo; details: for cardiac fibrosis: IV, Masson-Trichrome
Description: (§1) FIG. 3A depicts in vivo experimental design, groups, treatment and timeline for the infective and anti-inflammatory effects of sPDNF. C57BL/6 mice (7 per group) were injected intraperitoneally with T cruzi Colombian strain (8×10^2 per mouse) and, four months later, intravenously with PBS (vehicle) or sPDNF (1 mg/kg body weight) at 0, 3, and 24 hours, weekly for 3 weeks. Mice were sacrificed 50 days after the first set of IV sPDNF treatment. FIG. 3B are images of heart (ventricle) paraffin-embedded, sectioned, and stained with H&E. Arrows indicate foci of inflammatory infiltrates, which were abundant in sham-treated (IV PBS) CCC mice and rare in IV sPDNF-treated CCC mice. Similar histology was found in other tissue sections and in a distinct set of sPDNF-treated and PBS-sham mice.
Same mice and experimental protocol as described in FIG. 3A were used except that paraffin-embedded heart sections were stained with Masson-Trichrome to visualize collagen in fibrotic areas (blue) and viable muscle fibers (red). FIGS. 4A and 4B display sections of atria of mice with CCC administered IV PBS or IV sPDNF, respectively. FIG. 4C is a graph showing the amount of cardiac fibrosis, as determined using ImageJ software (NIH) in four distinct sections of atria and ventricles. Relative cardiac fibrosis is defined as the ratio of blue pixels to total pixels (blue+red) normalized to corresponding areas of the heart of uninfected mice set at 1.0 (dotted line); **, P<0.01, ns, not significant relative uninfected hearts.

[3] = system: cardiac inflammatory and fibrogenic markers; test: Chronic Chagas cardiomyopathy (CCC) mice, transcripts by qPCR; assay type: in vivo
Description: as §1
FIG. 5A is a graph showing transcript expression for inflammatory cytokines in hearts of the infected mice, as assessed by qPCR for the indicated transcripts, which were normalized to HPRT and made relative to uninfected vehicle-treated mice. Values for IFN-λ were reduced by 3-fold; **, p<0.01. FIG. 5B is a graph showing transcript expression for inflammatory cell markers in hearts of the infected mice, as assessed by qPCR for the indicated transcripts, which were normalized to HPRT and made relative to uninfected vehicle-treated mice. Values for CD8, and CD4 were reduced by 15-, and 1.5-fold, respectively; **, p<0.01, ***, p<0.001. FIG. 5C is a graph showing transcript expression for inflammatory cytokines in hearts of the infected mice, as assessed by qPCR for the indicated transcripts, which were normalized to HPRT and made relative to uninfected vehicle-treated mice. FIG. 5D is a graph showing percent reduction of cardiac inflammatory markers of mice chronically infected with T cruzi, using data from FIGS. 5A-5C. Baseline represents mean transcripts of uninfected mice. FIG. 5E is a graph showing expression of TSG-6 transcripts in heart and liver of T cruzi infected mice. Heart (ventricles+atria) and liver of mice (5 per group) infected acutely (25-day post injection) (Acute) or chronically (6-months PI, CCC, same as in FIG. 3) with T cruzi Colombian were assessed for TSG-6 transcript by qPCR and plotted relative to uninfected mice set at 1.0; **, P<0.001. […] is a graph showing TSG-6 serum levels assessed by ELISA (MyBiosource) in mice uninfected (Un-Inf) or bearing CCC and injected IV with vehicle PBS or sPDNF following the protocol described in FIG. 3. Bars represent the average (±SD) of three mice per point; two separate experiments, **, P<0.01.

TrkB = TrkB (Homo sapiens, UniProt Q16620); details: previous finding; cited from earlier work
Sequence of TrkB (Q16620 32-822, species assumed): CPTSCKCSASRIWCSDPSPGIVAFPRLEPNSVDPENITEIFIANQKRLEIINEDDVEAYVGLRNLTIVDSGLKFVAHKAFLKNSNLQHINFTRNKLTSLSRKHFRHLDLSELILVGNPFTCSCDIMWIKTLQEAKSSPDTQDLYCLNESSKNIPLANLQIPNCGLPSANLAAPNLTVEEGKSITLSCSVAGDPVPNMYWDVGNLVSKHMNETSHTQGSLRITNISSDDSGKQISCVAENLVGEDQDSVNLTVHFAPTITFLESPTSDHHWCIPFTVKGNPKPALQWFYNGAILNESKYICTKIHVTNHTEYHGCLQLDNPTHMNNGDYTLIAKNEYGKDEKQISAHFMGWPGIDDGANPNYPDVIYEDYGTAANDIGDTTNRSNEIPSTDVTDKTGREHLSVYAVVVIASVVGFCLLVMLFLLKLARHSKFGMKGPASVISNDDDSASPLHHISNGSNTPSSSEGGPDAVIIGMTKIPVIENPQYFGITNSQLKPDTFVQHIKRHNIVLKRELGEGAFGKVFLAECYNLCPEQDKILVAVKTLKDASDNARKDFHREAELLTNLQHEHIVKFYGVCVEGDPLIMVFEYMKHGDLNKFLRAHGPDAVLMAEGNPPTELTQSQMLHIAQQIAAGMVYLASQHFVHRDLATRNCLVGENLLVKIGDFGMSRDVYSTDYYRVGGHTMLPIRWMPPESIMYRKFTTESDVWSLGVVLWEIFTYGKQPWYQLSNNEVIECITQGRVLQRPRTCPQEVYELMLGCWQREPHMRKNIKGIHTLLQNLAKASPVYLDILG

[4] = hearts of infected (CCC) mice, FIG. 5B

B1: sPDNF: N-terminal short-form of T cruzi PDNF that contains Trk-binding sites, recombinant; amino acids 1-588 of SEQ ID NO: 2; JR-100 is the commercial name (protein, listed as Trypanosoma cruzi)
chain: MGKTVVVASRMFWLMFFVPLLLAICPSEPAYALAPGSSRVELFKRKNSTVPFEDKAGKVTERVVHSFRLPALVNVDGVMVAIADARYDTSNDNSLIDTVAKYSVDDGETWETQIAIKNSRVSSVSRVVDPTVIVKGNKLYVLVGSYYSSRSYWSSHGDARDWDILLAVGEVTKSTAGGKITASIKWGSPVSLKKFFPAEMEGMHTNQFLGGAGVAIVASNGNLVYPVQVTNKKKQVFSKIFYSEDDGKTWKFGKGRSDFGCSEPVALEWEGKLIINTRVDWKRRLVYESSDMEKPWVEAVGTVSRVWGPSPKSNQPGSQSSFTAVTIEGMRVMLFTHPLNFKGRWLRDRLNLWLTDNQRIYNVGQVSIGDENSAYSSVLYKDDKLYCLHEINTDEVYSLVFARLVGELRIIKSVLRSWKNWDSHLSSICTPADPAASSSESGCGPAVTTVGLVGFLSGNASQNVWEDAYRCVNASTANAERVRNGLKFAGVGGGALWPVSQQGQNQRYRFANHAFTLVASVTIHEAPRAASPLLGASLDSSGGKKLLGLSYDEKHQWQPIYGSTPVTPTGSWETGKRYHLVLTMANKI
expression of cardiac and hepatic stem cell markers [1]: increased expression | expression of COX-2 (IL1-Ra, TSG-6 and COX-2): increased expression | expression of IL1-Ra (IL1-Ra, TSG-6 and COX-2): increased expression | expression of TSG-6 (IL1-Ra, TSG-6 and COX-2): increased expression | inflammatory infiltrates in the heart ([2]; IV 1 mg/kg at 0, 3, 24 hours weekly for 3 weeks, 1 mg/kg): dramatic reduction and rare | cardiac fibrosis [2]: reduced | cardiac fibrosis ([2]; listed as PDNF fragment): nearly eliminated | expression of anti-inflammatory TSG-6 in the heart and liver ([3]; CCC mice, IV): increased expression; also recorded: restored TSG-6 transcript to levels seen in acutely infected mice | transcripts of cardiac inflammatory and fibrogenic markers ([3]; CCC mice, IV): global decrease | IFN-λ transcript values reduced ([3]; hearts of infected (CCC) mice, FIG. 5A): 3 fold | CD4 transcript values reduced [3, 4]: 1.5 fold | CD8 transcript values reduced [3, 4]: 15 fold | cardiac inflammation (CD8 lymphocyte infiltrates, pro-inflammatory cytokines such as tumor necrosis factor-α) ([3]; model of chronic Chagas disease, intravenous): reduced | recognition of TrkB (TrkB): not recognized
